{
  "source": "paper PMC9092175",
  "key": {"[1]": {"target": "plant virus-based immunosorbent nanoparticle (VIN): assembled turnip vein clearing virus (TVCV) virion of coat protein Fc-affinity ligand fusion (CP-FcAL) (turnip vein clearing virus | S. aureus) (UniProt Q88922)", "test": "co-sedimentation; affinity sedimentation: purified VIN mixed in free suspension with a pre-purified target; VIN-target complex pelleted (12,000 x g, 10 min for hIgG; 20,000 x g, 20 min for the Fc-fusions); eluted with 0.1 M glycine-HCl pH 2.5; SDS-PAGE and Western blot"}, "[2]": {"target": "plant virus-based immunosorbent nanoparticle (VIN): assembled turnip vein clearing virus (TVCV) virion of coat protein Fc-affinity ligand fusion (CP-FcAL) (turnip vein clearing virus | S. aureus) (UniProt Q88922)", "test": "pull-down; magnetic separation: VIN covalently coupled to superparamagnetic particles (VIN-MP), hIgG in PBS; eluted with 0.2 M glycine buffer pH 2.5"}},
  "data": [
    {"substance": "human immunoglobulin G (hIgG) (antibody)", "values": [
      {"measurement": "recovery of the feed hIgG", "setting": "[1]", "result": 95, "unit": "%"},
      {"measurement": "binding capacity per mass of magnetic particle (µg hIgG/mg MP)", "setting": "[2]", "result": "> 1000"},
      {"measurement": "hIgG binding/elution load per mass of VIN (mg hIgG/mg VIN)", "setting": "[2]", "result": 0.3},
      {"measurement": "hIgG elution recovery per mass of VIN, VIN-MP relative to uncoupled VIN", "setting": "[2]", "result": "35 to 55", "unit": "%"},
      {"measurement": "recovery of the feed hIgG", "setting": "[2]", "result": 42, "unit": "%"}
    ]}
  ]
}
